Experimental findings from patent publication US5942405A, “Therapeutic and screening methods using C3a receptor and C3a” (priority 1997, dated 1999) are described below.

One test relates to C5a-R. Briefly: Calcium mobilization by Fura 2 loaded RBL-2H3 cells stably expressing C5a-R. The class given is cell-based, human. Particulars: RBL-2H3 cells expressing C5a-R, Fig. 4: rC5a 10 nM, C3a analogue peptide 1 uM. The method, then:
(§1) (A) Electrophysiological response of Xenopus oocytes injected with cRNA for C3a Receptor (10 ng), total U937 RNA (25 ng), or a mixture of C3a Receptor (10 ng) and U937 RNA (25 ng) to 10 nM rC5a, 10 nM C3a analogue peptide, 10 nM platelet activating factor (PAF), 10 nM fMetLeuPhe. Inset, represents typical response of oocytes co-injected with C3a Receptor cRNA+U937 RNA to 10 nM C3a. (B) Electrophysiological response of oocytes injected with C5a-R cRNA (10 ng), U937 RNA (25 ng) or a mixture of C5a-R and U937 RNA, to 10 nM rC5a or 10 nM C3a analogue peptide. […] Calcium mobilization by Fura 2 loaded cells expressing C5a receptor (FIGS. 4A & 4C) or C3a Receptor (FIGS. 4B & 4D) in response to rC5a (10 nM, FIG. 4A or 100 nM, FIG. 4B) or C3a analogue peptide (1 uM, FIGS. 4C & 4D).
(§2) To prepare C3a Receptor for expression in mammalian cells, a 1.6 kb cDNA fragment was obtained by PCR amplification that encompassed the entire C3a Receptor open reading frame. This fragment was subcloned into KpnI/Hind III sites of the mammalian expression vector, pCDN (Aiyar, N., et al (1994) Mol. Cell. Bio. 131, 75-86). Oligonucleotide primers used for PCR amplification were 5'-GA AGT GGT ACC ATG GCG TC-3' (SEQ ID NO:4) and 5'-GC TCCAAGCTTTCACACAGTTG-3' (SEQ ID NO:5) (the translation start and stop codons are underlined). RBL-2H3 cells were electroporated with either C3a Receptor or C5a-R in the pCDN mamalian expression vector (Aiyar, N., et al (1994) Mol. Cell. Bio. 131, 75-86), exactly as described (DeMartino, J. A., et al (1994) J. Biol Chem. 269, 14446-14450). Individual G418 resistant (400 μg/ml) colonies were isolated and expanded. Clonal cell lines expressing either C3a Receptor or C5a-R were chosen for further functional and binding studies.
(§3) RBL-2H3 cells (Siraganian, R. P., et al (1982) Fed. Proc. 41, 30-34), a rat basophil cell line, when transfected with an expression plasmid encoding the C5a-R express receptors that are functionally active (DeMartino, J. A., et al (1994) J. Biol. Chem. 269, 14446-14450). RBL-2H3 cells were stably transfected with mammalian expression plasmids encoding the C5a-R or C3a Receptor and Fura 2 loaded cells were tested for a C5a or C3a induced mobilization of intracellular Ca^2+.
(§4) Fura 2 loaded clonal cell lines expressing C5a-R or C3a Receptor were assayed for functional response, Ca^2+ mobilization, as described (Saussy, D. L. Jr., et al (1989) J. Biol. Chem. 264, 19845-19855).
A general note: A change in cytosolic calcium serves as a functional read-out for many receptors and channels.

Test [1] concerns the target T1, C3a Receptor (Homo sapiens, UniProt Q16581).
T1 sequence (Q16581 1-482 F151C): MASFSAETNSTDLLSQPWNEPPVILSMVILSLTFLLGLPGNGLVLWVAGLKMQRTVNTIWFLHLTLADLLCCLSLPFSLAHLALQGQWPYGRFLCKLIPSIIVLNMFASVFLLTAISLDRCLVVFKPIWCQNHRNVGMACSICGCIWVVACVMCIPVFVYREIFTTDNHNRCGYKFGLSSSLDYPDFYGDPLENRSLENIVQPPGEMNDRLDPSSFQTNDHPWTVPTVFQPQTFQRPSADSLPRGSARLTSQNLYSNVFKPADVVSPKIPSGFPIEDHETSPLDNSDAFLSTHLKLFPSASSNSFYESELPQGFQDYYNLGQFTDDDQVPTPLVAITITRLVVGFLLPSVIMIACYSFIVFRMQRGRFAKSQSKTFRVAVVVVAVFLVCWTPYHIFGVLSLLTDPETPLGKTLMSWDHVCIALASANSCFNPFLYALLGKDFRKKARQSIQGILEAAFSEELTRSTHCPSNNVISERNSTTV
Briefly: Calcium mobilization by Fura 2 loaded RBL-2H3 cells stably expressing C3a Receptor. It counts as cell-based. Set-up: cDNA encoding a complete orphan GPCR of 482 amino acids; expressed in transfected cells. As to conditions: for EC50: Fura 2 loaded RBL-2H3 cells expressing C3a Receptor, read-out: EC50, mobilization of intracellular Ca2+; for mobilization of intracellular Ca2+ (response in words): RBL-2H3 cells expressing C3a Receptor, Fig. 4: rC5a 100 nM, C3a analogue peptide 1 uM. The procedure:
as §1, §2, §3, §4

The target in test [2] is T1, C3a Receptor. Briefly: Whole cell 125I-C3a binding to C3a Receptor expressing RBL-2H3 cells (competition and saturation). As to conditions: for IC50: RBL-2H3 cells expressing C3a Receptor, 1×10^6 cells; for IC50 / competition of 125I-C3a binding / specific binding (in words): 2.3 nM labelled C3a; for competition of 125I-C3a binding / specific binding (in words): cells expressing C3a Receptor. More on the design: cDNA encoding a complete orphan GPCR of 482 amino acids; expressed in transfected cells.
From the text: as §2
The C3a carboxy-terminal analogue synthetic peptide, [WWGKKYRASKLGLAR (SEQ ID NO:3)] was obtained from Bachem Bioscience, Inc., King of Prussia, Pa. C3a was purchased from Advanced Research Technologies, San Diego, Calif. Human rC5a was expressed in E. coli and purified to homogeneity. Other agonists were obtained from Sigma, St. Louis, MO. C3a was radioiodinated using IODOBEADS (Pierce, Rockford Ill.) to a specific activity of 100 Cilmmol. Increasing concentrations of cold competitor were added to 1×10^6 cells in the presence of ^125 -C3a (2.3 nM), and the assay was performed essentially as described (Klos, A., et al (1992) Biochemistry 31, 11274-11282).
C3a was radioiodinated and used in whole cell binding assays to further characterize C3a Receptor. […] Curiously, HEK 293 cells stably expressing C3a Receptor mRNA by Northern Blot, neither bound nor responded to C3a (data not shown).

As a reminder, the EC50 is the concentration needed to bring the measured effect to its halfway point. The term IC50 denotes the concentration at which inhibition is half-maximal. A lower IC50 goes with greater potency in that assay. One may read the Kd as a measure of binding affinity in units of concentration. Take “C3a: C3a was purchased from Advanced Research Technologies, San Diego; anaphylatoxin; radioiodinated for binding”: the “mobilization of intracellular Ca2+ (response in words)” value (“mobilization of intracellular Ca2+” for short) in the test with C5a-R is “not C5a receptor bind and respond”; in the test with C5a-R (listed as native human C3a) it was “not C5a-R expressing RBL-2H3 cells also responded”; with C3a Receptor [1], “bind and respond”; in the test with C3a Receptor [1] (listed as native human C3a), “responded”. In addition, in the test with C3a Receptor [1], the EC50 was found to be 0.3 nM. Besides, in the test with C3a Receptor [2], the IC50 worked out at 3 nM. Moreover, the “competition of 125I-C3a binding / specific binding (in words)” value with C3a Receptor [2] is on record as “specifically bind”. For the same molecule, the Bmax with C3a Receptor [2] (saturation binding and Scatchard analysis, data not shown) is reported as 32,000 receptors per cell. This molecule yielded a Kd in the test with C3a Receptor [2] (saturation binding and Scatchard analysis, single class of sites, data not shown) of 0.3 nM.
“WWGKKYRASKLGLAR [C3a analogue synthetic peptide, reference compound]”: the “mobilization of intracellular Ca2+” value in the test with C5a-R is on record as “no response”. Moreover, in the test with C3a Receptor [1], the half-maximal effective concentration (EC50) was 3.9 nM and the “mobilization of intracellular Ca2+” value is given as “respond”. Further, in the test with C3a Receptor [1] (listed as C3a synthetic peptide), the “mobilization of intracellular Ca2+” value is on record as “robust response”. Also, in the test with C3a Receptor [2], the IC50 was determined as 155 nM and the “competition of 125I-C3a binding / specific binding (in words)” value is “specifically bind”.

B1: rC5a: Human rC5a was expressed in E. coli and purified to homogeneity (protein, UniProt P01031 678-751, looked up)
C5a anaphylatoxin: TLQKKIEEIAAKYKHSVVKKCCYDGACVNNDETCEQRAARISLGPRCIKAFTECCVVASQLRANISHKDMQLGR
modifications: C5a anaphylatoxin recombinant, E. coli
notes: Human rC5a was expressed in E. coli and purified to homogeneity
Turning to B1, the “mobilization of intracellular Ca2+” value in the test on C5a-R is given as “responded”; with C3a Receptor [1] it was “not C3a Receptor expressing cells responded”. Also, in the test with C3a Receptor [2], the “competition of 125I-C3a binding / specific binding (in words)” value is “not”.
